Source: publication PMC12009402 (Scientific Reports, 2025)

Target: the molecule itself
Test: AUC

B1: hCCL5-K25S (ligand)
chain: SPYSSDTTPCCFAYIARPLPRAHISEYFYTSGKCSNPAVVFVTRKNRQVCANPEKKWVREYINSLEMS
stoichiometry N: ~200
